From patent US20180009908 come the findings set out here.

The target of data set [1] is matuzumab HC_20.8.34_B + matuzumab LC (IgG1). Kind of data set: LCMS, IgG1 BsAb co-expression in HEK293F.
The target in data set [2] is matuzumab HC_20.8.37_B + matuzumab LC (IgG1). The data set can be described thus: LCMS, IgG1 BsAb co-expression in HEK293F.
For data set [3], the target named is matuzumab HC_20.8_B + matuzumab LC (IgG1). Kind of data set: LCMS, IgG1 BsAb co-expression in HEK293F.
Data set [4] addresses matuzumab HC_20.8.34_B + matuzumab LC (IgG1). Kind of data set: LCMS, IgG1 BsAb co-expression; HCA/HCB heterodimer carrying two LC1.
In data set [5] the target is matuzumab HC_20.8.37_B + matuzumab LC (IgG1). Described as above.
Data set [6] deals with matuzumab HC_20.8_B + matuzumab LC (IgG1). Described as above.
In data set [7] the target is matuzumab HC_20.8.34_B + matuzumab LC (IgG1). The data set can be described thus: LCMS, IgG1 BsAb co-expression; HCA/HCB heterodimer carrying two LC2.
The target in data set [8] is matuzumab HC_20.8.37_B + matuzumab LC (IgG1). The description is as above.
Data set [9] addresses matuzumab HC_20.8_B + matuzumab LC (IgG1). Described as above.
Data set [10] addresses matuzumab HC_7.8.60_B + matuzumab LC (IgG4 HC backbone). Kind of data set: LCMS, IgG4 BsAb co-expression in HEK293F.
Data set [11] is described as follows: LCMS, IgG4 BsAb co-expression; HCA homodimer species.
Data set [12] concerns the target matuzumab HC_7.8.60_B + matuzumab LC (IgG4 HC backbone). Kind of data set: LCMS, IgG4 BsAb co-expression; HCA/HCB heterodimer carrying two LC1.
Data set [13] has the same target. Kind of data set: LCMS, IgG4 BsAb co-expression; HCA/HCB heterodimer carrying two LC2.

B1: MetMAb HC_20.8.26_A + MetMAb LC (IgG1) (protein)
chain 1: EVQLVESGGGLVQPGGSLRLSCAASGYTFTSYWLHWVRKAPGKGLEWVGMIDPSNSDTRFNPEFKDRFTISADTSKNTAYLQMNSLRAEDTAVYYCATYRSYVTPLDYWGQGTLVTVSSASTKGPSVFPLAPSSKSTSGGTAALGCLVKDYFPEPVTVSWNSGALTSGVATGPAVLQSSGLYSLSSVVTVPSSSLGTQTYICNVNHKPSNTKVDKKVEPKSCDKTHTCPPCPAPELLGGPSVFLFPPKPKDTLMISRTPEVTCVVVDVSHEDPEVKFNWYVDGVEVHNAKTKPREEQYQSTYRVVSVLTVLHQDWLNGKEYKCKVSNKALPAPIEKTISKAKGQPREPQVSTLPPSREEMTKNQVSLMCLVYGFYPSDIAVEWESNGQPENNYKTTPPVLDSDGSFFLYSVLTVDKSRWQQGNVFSCSVMHEALHNHYTQKSLSLSPGK
chain 2: RIQMTQSPSSLSASVGDRVTITCKSSQSLLYTSSQKNYLAWYQDKPGKAPKLLIYWASTRESGVPSRFSGSGSGTDFTLTISSLQPEDFATYYCQQYYAYPWTFGQGTKVEIKGQPKAAPSVTLFPPSSEELQANKATLVCYISDFYPGAVTVAWKADSSPVKAGVETTTPSKQSNNKYAAWSYLSLTPEQWKSHRSYSCQVTHEGSTVEKTVAPTEC
With B1, the % AB (LC1/LC2) (correct IgG BsAb assembly) came out at 95.8% in data set [1], 79.1% in data set [2] and 58.6% in data set [3]. Also, the % AB (2x LC1) (incorrect assembly) in [4], in data set [5] and in [6] was 0% throughout. Further, the % AB (2x LC2) (incorrect assembly) was 4.2% in data set [7], 20.9% in data set [8] and 33.3% in [9].

B2: MetMAb HC_7.8.60_A + MetMAb LC (IgG4 HC backbone) (protein)
chain 1: EVQLVESGGGLVQPGGSLRLSCAASGYTFTSYWLHWVRKAPGKGLEWVGMIDPSNSDTRFNPEFKDRFTISADTSKNTAYLQMNSLRAEDTAVYYCATYRSYVTPLDYWGQGTLVTVSSASTKGPSVFPLAPCSRSTSESTAALGCLVKDYFPEPVTVSWNSGALTSGVATGPAVLQSSGLYSLSSVVTVPSSSLGTKTYTCNVDHKPSNTKVDKRVESKYGPPCPPCPAPEAAGGPSVFLFPPKPKDTLMISRTPEVTCVVVDVSQEDPEVQFNWYVDGVEVHNAKTKPREEQFQSTYRVVSVLTVLHQDWLNGKEYKCKVSNKGLPSSIEKTISKAKGQPREPQVYTLPPSQEEMTDNQVSLTCLVKGFYPSDIAVEWESNGQPENNYKTTPPVLMSDGSFFLASRLTVDKSRWQEGNVFSCSVMHEALHNHYTQKSLSLSLG
chain 2: RIQMTQSPSSLSASVGDRVTITCKSSQSLLYTSSQKNYLAWYQDKPGKAPKLLIYWASTRESGVPSRFSGSGSGTDFTLTISSLQPEDFATYYCQQYYAYPWTFGQGTKVEIKGQPKAAPSVTLFPPSSEELQANKATLVCYISDFYPGAVTVAWKADSSPVKAGVETTTPSKQSNNKYAAWSYLSLTPEQWKSHRSYSCQVTHEGSTVEKTVAPTEC
Regarding B2, in data set [10], the % AB (LC1/LC2) (correct IgG BsAb assembly) was 100%. The protein further had a % AA Homodimer (incorrect assembly) in data set [11] of 0%. The % AB (2x LC1) (incorrect assembly) in data set [12] turned out to be 0%. Moreover, the % AB (2x LC2) (incorrect assembly) in data set [13] was 0%.
